First the molecules themselves.
B1: Isoform B of Fibulin-1 (protein)
chain: DVLLEACCADGHRMATHQKDCSLPYATESKECRMVQEQCCHSQLEELHCATGISLANEQDRCATPHGDNASLEATFVKRCCHCCLLGRAAQAQGQSCEYSLMVGYQCGQVFQACCVKSQETGDLDVGGLQETDKIIEVEEEQEDPYLNDRCRGGGPCKQQCRDTGDEVVCSCFVGYQLLSDGVSCEDVNECITGSHSCRLGESCINTVGSFRCQRDSSCGTGYELTEDNSCKDIDECESGIHNCLPDFICQNTLGSFRCRPKLQCKSGFIQDALGNCIDINECLSISAPCPIGHTCINTEGSYTCQKNVPNCGRGYHLNEEGTRCVDVDECAPPAEPCGKGHRCVNSPGSFRCECKTGYYFDGISRMCVDVNECQRYPGRLCGHKCENTLGSYLCSCSVGFRLSVDGRSCEDINECSSSPCSQECANVYGSYQCYCRRGYQLSDVDGVTCEDIDECALPTGGHICSYRCINIPGSFQCSCPSSGYRLAPNGRNCQDIDECVTGIHNCSINETCFNIQGGFRCLAFECPENYRRSAATQKSKKGRQNTPAGSSKEDCRVLPWKQGLEDTHLDA
B2: Protein S100-A7 (protein)
chain: SNTQAERSIIGMIDMFHKYTRRDDKIEKPSLLTMMKENFPNFLSACDKKGTNYLADVFEKKDKNEDKKIDFSEFLSLLGDIATDYHKQSHGAAPCSGGSQ
B3: Junction plakoglobin (protein)
chain: MEVMNLMEQPIKVTEWQQTYTYDSGIHSGANTCVPSVSSKGIMEEDEACGRQYTLKKTTTYTQGVPPSQGDLEYQMSTTARAKRVREAMCPGVSGEDSSLLLATQVEGQATNLQRLAEPSQLLKSAIVHLINYQDDAELATRALPELTKLLNDEDPVVVTKAAMIVNQLSKKEASRRALMGSPQLVAAVVRTMQNTSDLDTARCTTSILHNLSHHREGLLAIFKSGGIPALVRMLSSPVESVLFYAITTLHNLLLYQEGAKMAVRLADGLQKMVPLLNKNNPKFLAITTDCLQLLAYGNQESKLIILANGGPQALVQIMRNYSYEKLLWTTSRVLKVLSVCPSNKPAIVEAGGMQALGKHLTSNSPRLVQNCLWTLRNLSDVATKQEGLESVLKILVNQLSVDDVNVLTCATGTLSNLTCNNSKNKTLVTQNSGVEALIHAILRAGDKDDITEPAVCALRHLTSRHPEAEMAQNSVRLNYGIPAIVKLLNQPNQWPLVKATIGLIRNLALCPANHAPLQEAAVIPRLVQLLVKAHQDAQRHVAAGTQQPYTDGVRMEEIVEGCTGALHILARDPMNRMEIFRLNTIPLFVQLLYSSVENIQRVAAGVLCELAQDKEAADAIDAEGASAPLMELLHSRNEGTATYAAAVLFRISEDKNPDYRKRVSVELTNSLFKHDPAAWEAAQSMIPINEPYGDDMDATYRPMYSSDVPLDPLEMHMDMDGDYPIDTYSDGLRPPYPTADHMLA
B4: Isoform 2 of Glycogen synthase kinase-3 (protein)
chain: MSGRPRTTSFAESCKPVQQPSAFGSMKVSRDKDGSKVTTVVATPGQGPDRPQEVSYTDTKVIGNGSFGVVYQAKLCDSGELVAIKKVLQDKRFKNRELQIMRKLDHCNIVRLRYFFYSSGEKKDEVYLNLVLDYVPETVYRVARHYSRAKQTLPVIYVKLYMYQLFRSLAYIHSFGICHRDIKPQNLLLDPDTAVLKLCDFGSAKQLVRGEPNVSYICSRYYRAPELIFGATDYTSSIDVWSAGCVLAELLLGQPIFPGDSGVDQLVEIIKVLGTPTREQIREMNPNYTEFKFPQIKAHPWTKDSSGTGHFTSGVRVFRPRTPPEAIALCSRLLEYTPTARLTPLEACAHSFFDELRDPNVKLPNGRDTPALFNFTTQELSSNPPLATILIPPHARIQAAASTPTNATAASDANTGDRGQTNNAASASASNST
B5: Ig heavy chain V-III region WEA (protein)
chain: EVQLVESGGGLVQPGGSLRLSCAASGFTFSSYEMNWVRQAPGKGLEWVSYISSSGSTIYYADSVKGRFTISRDNAKNSLYLQMNSLRAEDTAVYYCAR
B6: Isoform C of Fibulin-1 (protein)
chain: DVLLEACCADGHRMATHQKDCSLPYATESKECRMVQEQCCHSQLEELHCATGISLANEQDRCATPHGDNASLEATFVKRCCHCCLLGRAAQAQGQSCEYSLMVGYQCGQVFQACCVKSQETGDLDVGGLQETDKIIEVEEEQEDPYLNDRCRGGGPCKQQCRDTGDEVVCSCFVGYQLLSDGVSCEDVNECITGSHSCRLGESCINTVGSFRCQRDSSCGTGYELTEDNSCKDIDECESGIHNCLPDFICQNTLGSFRCRPKLQCKSGFIQDALGNCIDINECLSISAPCPIGHTCINTEGSYTCQKNVPNCGRGYHLNEEGTRCVDVDECAPPAEPCGKGHRCVNSPGSFRCECKTGYYFDGISRMCVDVNECQRYPGRLCGHKCENTLGSYLCSCSVGFRLSVDGRSCEDINECSSSPCSQECANVYGSYQCYCRRGYQLSDVDGVTCEDIDECALPTGGHICSYRCINIPGSFQCSCPSSGYRLAPNGRNCQDIDECVTGIHNCSINETCFNIQGGFRCLAFECPENYRRSAATRCERLPCHENRECSKLPLRITYYHLSFPTNIQAPAVVFRMGPSSAVPGDSMQLAITGGNEEGFFTTRKVSPHSGVVALTKPVPEPRDLLLTVKMDLSRHGTVSSFVAKLFIFVSAEL

One experiment has as its target T1, Abeta-42 plaque particles (Homo sapiens, UniProt P05067).
T1 construct: Abeta 1-42
Nature of the experiment: Mass spectroscopy proteomics, semi-quantitative binding affinity of serum proteins (plaqueproteome, Table 2). To be noted: higher number = stronger affinity. A digest of the protocol:
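AD patient serum or plasma (50% in PBS) was incubated with Abeta-42 aggregates (30 μg) for 1 h at 37 °C, then stained with Thioflavin S for 30 min. Labeled particles were FACS-sorted, trypsin/Lys-C digested overnight and analyzed by MS/MS. Sequest searched human UniProt; Scaffold/Protein Prophet validated the identifications.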
For the molecule B1, the “Semi-quantitative analysis of proteins binding to different plaque particles: Abeta-42” value turned out to be 0.
On the same count and under the same terms, to B2 belongs 2.
Still for that read-out and setting: for B3 the value was 2.
On the same count and under the same terms, for B4 the value was 4; for B5, 2.
On to B6, for which the “Semi-quantitative analysis of proteins binding to different plaque particles: Abeta-42” value is 0.

A further experiment has as its system High Density cholesterol (Chl Large) plaque particles. The experiment is described as above. Further details: species or system human. To be noted: higher number = stronger affinity. The method, boiled down:
(§1)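 Serum or plasma from atherosclerotic subjects, diluted to 50% in PBS, was incubated with cholesterol aggregates (30 μg per 1 mL reaction) at 37° C for 1 hr. Small and large cholesterol plaque particles were sorted by flow cytometry gating, trypsin-digested and analysed by MS/MS against a human UniProt database.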
Consider B1, for which the “Semi-quantitative analysis of proteins binding to different plaque particles: Chl Large” value is recorded as 3.
On the same count and under the same terms, for B2 the value was 0.
Turning to B3, the “Semi-quantitative analysis of proteins binding to different plaque particles: Chl Large” value was 0.
As for B4, the “Semi-quantitative analysis of proteins binding to different plaque particles: Chl Large” value is listed as 0.
Still for that read-out and setting: to B5 belongs 1; to B6, 1.

The next experiment concerns Low density cholesterol (Chl small) plaque particles. The description is as above. Particulars: higher number = stronger affinity. Further details: species or system human. The method, boiled down: as §1
B1: the “Semi-quantitative analysis of proteins binding to different plaque particles: Chl small” value came to 3.
Same read-out and setting: to B2 belongs 0; to B3, 0.
On the same count and under the same terms, to B4 belongs 0.
The same measure, in the same setting: to B5 belongs 1.
On to B6, for which the “Semi-quantitative analysis of proteins binding to different plaque particles: Chl small” value is on record as 2.

A further experiment concerns the target T2, alpha-synuclein plaque particles (Homo sapiens, UniProt P37840).
T2 construct: 140 amino acids polypeptide
The description is as above. Particulars: higher number = stronger affinity. A digest of the protocol: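 AD-subject plasma or serum (800 μL of 50%) mixed with 30 μg preformed alpha-synuclein aggregates for 1 h at 37 °C; Thioflavin S-positive particles isolated by flow sorting. After reduction, acrylamide alkylation and overnight tryptic digestion, serum proteins identified by MS/MS with Sequest and Scaffold.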
B1: the “Semi-quantitative analysis of proteins binding to different plaque particles: Synuclein” value was found to be 1.
The same measure, in the same setting: to B2 belongs 0.
On the same count and under the same terms, for B3 the value was 0; for B4, 0.
On the same count and under the same terms, to B5 belongs 1; to B6, 1.

In the next experiment the test system is Tau plaque particles. Described as above. Further details: species or system human. To be noted: higher number = stronger affinity. A digest of the protocol: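 Serum or plasma proteins captured on Thioflavin S-labelled Tau plaque particles (Tau-74, Tau-275 oligomers preformed in PBS at 37° C for 2 h; 1 h co-incubation at 37° C) were isolated by FACS sorting, then tryptically digested and identified by MS/MS (Sequest, human UniProt, strict trypsin).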
As for B1, the “Semi-quantitative analysis of proteins binding to different plaque particles: Tau” value was found to be 0.
On the same count and under the same terms, to B2 belongs 0; to B3, 0.
With B4, the “Semi-quantitative analysis of proteins binding to different plaque particles: Tau” value is reported as 0.
On the same count and under the same terms, for B5 the value was 1.
The same measure, in the same setting: to B6 belongs 0.

(Values after US9618524B2, “Method, composition, isolation and identification of a plaque particle and related biomarker” (Plaxgen Inc., priority 2012, dated 2017).)
